In test [1] the target is T1, LFA-1 (heterodimeric CD11a/CD18) (human, UniProt P20701 26-1170; P05107 23-769).
T1 construct: whole, on cells; Endogenous LFA-1 on Jurkat cells (and on human PBMC) in the cell assays; In the BIAcore assay and the co-immunoprecipitations it was the whole heterodimer from octylthioglucoside lysates of Jurkat cells; also called LFA-1 molecule; LFA-1 counter receptor
Put plainly: competition on Jurkat cells at 4 C; HI111 at 1 microg/mL against 35S-labelled 3D-ICAM-1/Fc.

Test [2] addresses T1, LFA-1 (heterodimeric CD11a/CD18). Nature of the test: BIAcore, purified ESM-1 (5 concentrations, 50 to 300 nM) over LFA-1 from Jurkat lysate captured by immobilized HI111, 25 C, PBS with 1 mM MgCl2 and 1 mM MnCl2. The protocol: LFA-1 molecules from the Jurkat lysates could only be fixed by immuno-affinity procedure. 200 millions of Jurkat cells were lysed in 2 mL of lysis buffer (PBS, 1 mM MgCl2, 1 mM MnCl2, complete anti-proteases cocktail EDTA-free and 5 mM octylthioglucoside) for 30 min at 4° C. After removal of insoluble material by centrifugation and incubation in a sonication bath, the lysate was injected at a flow rate of 5 microL/min for 30 min at 25° C. in order to immobilize approximatively 1500 RU of LFA-1 molecules. Next, CD11a mAb (G43-25B), CD18 mAb and purified ESM-1 were diluted in running buffer (PBS, 1 mM MgCl2, 1 mM MnCl2) and injected at a flow rate of 5 microL/min for 5 min at 25° C. The association rate constant (ka) and the dissociation rate constant (kd) were fitted calculated according to the BIAevaluation software version 3.1 provided by the manufacturer. The affinity constant was calculated from the equation Kd=kd/ka.
To better define the interaction between LFA-1 and ESM-1, a real-time observation by BIAcore analysis was carried out. Sensor chip was filled with detergent lysates of Jurkat cells in order to capture functional LFA-1 molecules. […] The binding of heterodimeric LFA-1 to mAb coated chip was consistently detected. […] No interaction was detected between the mAb coated surface or control surface and ESM-1 at the highest concentration used in this experiment (data not shown).
(Surface plasmon resonance follows binding to a sensor surface in real time, without labels.)

The target in the next test is T2, CD44 on Jurkat cells (human, UniProt P16070 21-742).
T2 construct: whole, on cells
T2 sequence (P16070 21-742): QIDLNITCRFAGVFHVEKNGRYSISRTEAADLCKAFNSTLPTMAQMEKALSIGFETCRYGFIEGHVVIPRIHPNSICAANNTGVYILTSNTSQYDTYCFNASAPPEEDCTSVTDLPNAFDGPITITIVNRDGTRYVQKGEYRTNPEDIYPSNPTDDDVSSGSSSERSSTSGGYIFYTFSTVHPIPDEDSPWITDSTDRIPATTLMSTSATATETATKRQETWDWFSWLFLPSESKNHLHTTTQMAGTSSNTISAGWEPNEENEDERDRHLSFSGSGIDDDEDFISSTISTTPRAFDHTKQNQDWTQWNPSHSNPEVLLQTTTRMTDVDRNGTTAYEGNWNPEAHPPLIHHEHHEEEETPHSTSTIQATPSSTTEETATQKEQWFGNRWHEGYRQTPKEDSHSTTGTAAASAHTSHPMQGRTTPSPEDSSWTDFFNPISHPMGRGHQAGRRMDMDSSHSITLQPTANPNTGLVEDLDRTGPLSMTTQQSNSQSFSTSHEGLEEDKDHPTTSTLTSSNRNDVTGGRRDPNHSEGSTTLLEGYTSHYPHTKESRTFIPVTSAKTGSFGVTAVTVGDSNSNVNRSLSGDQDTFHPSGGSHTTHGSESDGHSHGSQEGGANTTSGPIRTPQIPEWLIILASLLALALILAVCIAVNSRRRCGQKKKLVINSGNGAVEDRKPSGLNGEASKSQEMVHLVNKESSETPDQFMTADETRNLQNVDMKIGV
Nature of the test: co-immunoprecipitation with anti-CD44 mAb from lysates of Jurkat cells incubated with 300 ng/mL ESM-1; ESM-1 ELISA of eluate. The method, then: (§1) FIGS. 17A–B: An anti-CD11a mAb coimmunoprecipitates ESM-1 with LFA-1 and increases ESM-1 binding to Jurkat cells. A. Coimmunoprecipitation of ESM-1 with LFA-1 : Jurkat cells were incubated with ESM-1 for 1 hour at 4° C. and immunoprecipitations were done with different mAbs according to the procedure previously described (none, anti-ESM-1 (MEC15), anti-CD3, anti-CD11a (1), ie clone HI111, anti-CD11a (2), ie clone G43-25B anti-CD18, anti-CD44, anti-CD2). Beads were washed and eluted. ESM-1 contents from eluates were analyzed by a specific ELISA. B. Activation of the binding of ESM-1 by an anti-CD11a mAb: Jurkat cells were firstly incubated in binding medium with different mAbs (none, anti-CD11a (1), anti-CD11a (2), IgG control) for 1 h at room temperature and secondly with ESM-1 for 1 h at 4° C. Cells were washed and lysed. ESM-1 was quantified by a specific ELISA in lysates (n=5).

The target of another test is T3, CD2 on Jurkat cells (human, UniProt P06729 25-351).
T3 construct: whole, on cells
T3 sequence (looked up): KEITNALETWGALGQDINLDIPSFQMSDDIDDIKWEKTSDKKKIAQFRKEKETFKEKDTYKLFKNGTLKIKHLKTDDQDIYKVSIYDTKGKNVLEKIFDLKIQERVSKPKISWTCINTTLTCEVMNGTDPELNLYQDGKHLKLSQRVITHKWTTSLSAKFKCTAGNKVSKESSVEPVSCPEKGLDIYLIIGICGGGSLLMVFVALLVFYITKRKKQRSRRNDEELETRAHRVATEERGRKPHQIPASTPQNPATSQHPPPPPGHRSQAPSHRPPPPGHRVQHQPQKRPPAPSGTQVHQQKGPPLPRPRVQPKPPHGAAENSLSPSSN
Nature of the test: co-immunoprecipitation with anti-CD2 mAb from lysates of Jurkat cells incubated with 300 ng/mL ESM-1; ESM-1 ELISA of eluate. The method, then:
as §1

For test [3], the target named is T1, LFA-1 (heterodimeric CD11a/CD18). Put plainly: BIAcore, from the ratio of the rate constants; ESM-1 over LFA-1 captured by immobilized HI111. The method, then:
The affinity constant was calculated from the equation Kd=kd/ka.
To better define the interaction between LFA-1 and ESM-1, a real-time observation by BIAcore analysis was carried out. Sensor chip was filled with detergent lysates of Jurkat cells in order to capture functional LFA-1 molecules. Specific binding of the heterodimeric form of LFA-1 to the anti-CD11a mAb coupled censorship was observed. In this assay, anti-CD11a mAb (HI111) was immobilized on the surface of the carboxymethyl 5 sensor chip as described in Materials and Methods. The binding of heterodimeric LFA-1 to mAb coated chip was consistently detected. The presence of both CD11a chain and CD18 chain was checked by injecting either another anti-CD11a mAb (G43-25B), or an anti-CD18 mAb in the LFA-1 captured channel. As reported in FIG. 18A, LFA-1 was strongly captured under its heterodimeric form, which was essential to keep functionality of LFA-1. Next, we have also examined the interaction of LFA-1 and purified human ESM-1 by BIAcore biosensor. […] No interaction was detected between the mAb coated surface or control surface and ESM-1 at the highest concentration used in this experiment (data not shown). Purified ESM-1 was then injected at indicated concentrations to the LFA-1 captured surface, and the response (in resonance units) versus time (in seconds) was recorded. […]

Test [4] addresses T4, 3D-ICAM-1/Fc chimeric protein (three first extracellular domains of ICAM-1 fused to the Fc fragment of human … (human, UniProt P05362 28-311, limits assumed, 35S methionine metabolic label in the ICAM-1 binding assays)).
T4 construct: domain: three first extracellular domains of ICAM-1; Expressed in 293 cells and purified on an anti-human Fc agarose column; also called soluble ICAM-1; soluble ICAM-1/Fc; not shown: Fc fragment of human IgG1
Put plainly: coprecipitation.

T1 sequence (P20701 26-1170, chain 1 of 2): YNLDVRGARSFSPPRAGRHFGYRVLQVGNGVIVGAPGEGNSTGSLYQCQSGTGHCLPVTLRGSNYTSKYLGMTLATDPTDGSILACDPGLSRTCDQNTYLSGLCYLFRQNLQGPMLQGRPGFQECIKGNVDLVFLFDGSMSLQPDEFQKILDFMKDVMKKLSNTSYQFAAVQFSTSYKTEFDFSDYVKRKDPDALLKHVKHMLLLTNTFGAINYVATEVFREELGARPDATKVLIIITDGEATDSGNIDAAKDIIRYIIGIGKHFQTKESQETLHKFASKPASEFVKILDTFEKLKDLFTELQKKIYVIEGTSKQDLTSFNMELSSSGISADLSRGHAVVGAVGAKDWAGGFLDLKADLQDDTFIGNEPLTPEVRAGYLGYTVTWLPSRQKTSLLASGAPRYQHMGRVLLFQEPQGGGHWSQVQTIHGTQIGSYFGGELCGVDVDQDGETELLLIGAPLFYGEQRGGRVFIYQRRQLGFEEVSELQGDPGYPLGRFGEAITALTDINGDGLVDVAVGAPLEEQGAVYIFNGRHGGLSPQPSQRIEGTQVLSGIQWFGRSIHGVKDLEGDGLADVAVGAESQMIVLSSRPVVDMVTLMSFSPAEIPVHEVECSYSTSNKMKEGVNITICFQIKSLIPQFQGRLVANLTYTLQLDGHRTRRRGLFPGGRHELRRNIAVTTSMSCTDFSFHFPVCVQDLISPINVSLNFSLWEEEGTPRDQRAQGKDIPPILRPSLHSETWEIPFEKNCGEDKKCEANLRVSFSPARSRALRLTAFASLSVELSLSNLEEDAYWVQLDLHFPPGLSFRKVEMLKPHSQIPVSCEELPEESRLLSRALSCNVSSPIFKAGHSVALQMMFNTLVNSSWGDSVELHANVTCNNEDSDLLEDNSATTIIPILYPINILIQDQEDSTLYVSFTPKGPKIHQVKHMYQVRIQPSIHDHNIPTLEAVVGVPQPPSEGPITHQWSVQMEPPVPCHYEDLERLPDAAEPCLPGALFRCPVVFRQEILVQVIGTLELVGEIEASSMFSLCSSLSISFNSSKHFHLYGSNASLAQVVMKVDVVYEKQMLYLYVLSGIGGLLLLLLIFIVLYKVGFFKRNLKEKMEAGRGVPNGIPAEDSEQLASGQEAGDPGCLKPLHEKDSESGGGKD
T1 sequence (P05107 23-769, chain 2 of 2): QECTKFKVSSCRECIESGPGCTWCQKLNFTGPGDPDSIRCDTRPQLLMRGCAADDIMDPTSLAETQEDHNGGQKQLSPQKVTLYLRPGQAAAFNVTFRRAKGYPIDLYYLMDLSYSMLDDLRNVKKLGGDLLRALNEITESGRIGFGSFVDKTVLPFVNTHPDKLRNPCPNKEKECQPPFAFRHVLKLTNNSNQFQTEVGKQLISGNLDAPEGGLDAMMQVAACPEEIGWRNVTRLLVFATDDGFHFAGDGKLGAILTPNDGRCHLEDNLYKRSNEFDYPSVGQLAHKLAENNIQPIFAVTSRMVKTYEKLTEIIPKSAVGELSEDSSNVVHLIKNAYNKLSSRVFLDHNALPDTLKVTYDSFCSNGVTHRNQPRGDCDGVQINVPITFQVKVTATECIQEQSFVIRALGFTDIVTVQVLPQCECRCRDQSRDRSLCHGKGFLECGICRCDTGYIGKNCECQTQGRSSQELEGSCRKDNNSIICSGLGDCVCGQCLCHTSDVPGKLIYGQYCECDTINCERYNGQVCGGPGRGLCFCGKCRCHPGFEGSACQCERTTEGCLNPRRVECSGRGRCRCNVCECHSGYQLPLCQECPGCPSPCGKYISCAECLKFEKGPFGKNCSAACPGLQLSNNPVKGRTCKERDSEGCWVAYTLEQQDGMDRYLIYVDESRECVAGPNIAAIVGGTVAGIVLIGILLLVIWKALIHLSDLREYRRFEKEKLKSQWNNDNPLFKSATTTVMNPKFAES
T4 sequence (P05362 28-311 limits assumed, stated change not applied): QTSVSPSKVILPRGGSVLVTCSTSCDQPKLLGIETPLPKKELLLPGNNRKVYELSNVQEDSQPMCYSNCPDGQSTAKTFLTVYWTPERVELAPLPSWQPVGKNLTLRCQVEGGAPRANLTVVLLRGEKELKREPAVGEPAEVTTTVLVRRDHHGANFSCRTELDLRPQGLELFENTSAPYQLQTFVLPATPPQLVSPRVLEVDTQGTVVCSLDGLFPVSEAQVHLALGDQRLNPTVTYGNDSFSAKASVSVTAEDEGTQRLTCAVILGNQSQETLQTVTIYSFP

For anti-CD11a mAb clone HI111 (antibody), the labelled ICAM-1 still bound (cpm) in test [1] was found to be 837 cpm.

B1: secreted ESM-1 protein (Endothelial Cell Specific Molecule-1), purified wild-type form (ligand)
chain: WSNNYAVDCPQHCDSSECKSSPRCKRTVLDDCGCCRVCAAGRGETCYRTVSGMDGMKCGPCLRCQPSNCEDPFGEEFGICKDCPYGTFGMDCRETCNCQSCICDRGTGKCLKFPFFQYSVTKSSNRFVSLTEHDMASGDGNIVREEVVKENAAGSPVMRKWLNPR
notes: The secreted form runs at about 50 kD and is described as glycosylated (a proteoglycan); also called ESM/WT; extracellular ESM-1
The term koff denotes the rate constant with which the complex falls apart. Low values mean slow dissociation, high ones fast dissociation. The term kon denotes the rate constant with which the complex forms. One may read the Kd as the equilibrium constant for the complex coming apart. The molecule B1 gave a koff in test [2] of 0.000825 s⁻¹. In test [2], the kon worked out at 44100 M⁻¹ s⁻¹. The binding result (with CD44 on Jurkat cells; with CD2 on Jurkat cells; in test [4]) was “no binding” each time. In addition, the Kd in test [3] was determined as 18.7 nM.

The values are drawn from patent US6670328 (INSTITUT PASTEUR DE LILLE, dated 2003).
